Consider 116 sequences from the supplement of paper PMC10724198.

± gives the standard deviation of the averaged measurements.
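Note: PSI is a weighted mean of sequencing reads over stability bins, variants kept only with over 10 reads, mCherry proximal and sfGFP distal, peptide attached via GGGS linker.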

For the series, the system named is Saccharomyces cerevisiae. Put plainly: protein stability index of tFT-peptide fusion (C-terminal peptide) (PSI (0-1 scale)); higher = more stable (slower turnover). Conditions: genetic background: wild type; temperature: 30 C. On the procedure:
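Multiplexed protein stability (MPS) profiling in S. cerevisiae. Random 12-aa peptides (tFT-X12 library) are fused to the C-terminus of a sfGFP-mCherry tandem fluorescent timer, after mCherry and a GGGS linker. Cells are FACS-sorted into 8 mCherry/sfGFP bins and deep-sequenced. The protein stability index (PSI) is the read-weighted bin average, scaled from 0 (unstable) to 1 (stable). Only peptides with >10 reads are reported; cells were grown at 30 °C in SC-His with glucose.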
With GGGGFLGVVGVG, the protein stability index came to 0.58 ± 0.01.

In the case of GGGGGGGGSLRV, the protein stability index is 0.663 ± 0.038.

Regarding GGGGGGGGVKGV, the protein stability index came out at 0.66 ± 0.02.

As to GGGGGGSTPALG, the protein stability index is 0.667 ± 0.028.

As for GGGGGLRGRGVR, the protein stability index turned out to be 0.682 ± 0.057.

GGGGGLVGGCVA: the protein stability index worked out at 0.696 ± 0.081.

Turning to GGGGGWGVAGGV, the protein stability index was 0.689 ± 0.013.

Take GGGGLGTAVVGV: the protein stability index was 0.6748 ± 0.0024.

GGGGSTIGVYVL returned a protein stability index of 0.686 ± 0.0047.

For GGGGVVGGLLCS, the protein stability index was found to be 0.761 ± 0.027.

In the case of GGGKINSLHGAG, the protein stability index came out at 0.681 ± 0.041.

The sequence GGGLGGAGFRGG displayed a protein stability index of 0.661 ± 0.051.

The sequence GGGRGGARVGQL came in with a protein stability index of 0.661 ± 0.013.

GGGRGVVVTCST displayed a protein stability index of 0.713 ± 0.038.

GGGRRVRRGGGR displayed a protein stability index of 0.678 ± 0.056.

GGGSFVGLDFGG had a protein stability index of 0.6567 ± 0.0036.

In the case of GGGVGGGVGQRG, the protein stability index is 0.705 ± 0.086.

The sequence GGGVLLWEGGGW displayed a protein stability index of 0.711 ± 0.02.

With GGGVRWRVGRGG, the protein stability index turned out to be 0.686 ± 0.0082.

For GGGVSFWLGAVA, the protein stability index turned out to be 0.647 ± 0.0081.

Turning to GGGVVRGLEQRA, the protein stability index was 0.637 ± 0.074.

With GGGVYPAGVVSG, the protein stability index is 0.658 ± 0.01.

For GGGWGLRVSCGT, the protein stability index was determined as 0.656 ± 0.071.

GGGWGRSKTETT yielded a protein stability index of 0.672 ± 0.023.

Consider GGGWGWAGENTR, for which the protein stability index was determined as 0.698 ± 0.038.

Regarding GGILSRVFFLCG, the protein stability index was 0.679 ± 0.017.

As to GGIQPEQYLNTL, the protein stability index is 0.688 ± 0.019.

GGIVVRGVGVRC displayed a protein stability index of 0.661 ± 0.04.

With GGKGGWHRRWGC, the protein stability index was found to be 0.643 ± 0.062.

GGLGGVRAGREG had a protein stability index of 0.711 ± 0.02.

On to GGLGREKLGGWR, for which the protein stability index came to 0.65 ± 0.091.

GGLICRQGVGRG returned a protein stability index of 0.748 ± 0.033.

GGLLSTVVVRVL came in with a protein stability index of 0.524 ± 0.022.

In the case of GGLRGERAGTDG, the protein stability index was determined as 0.637 ± 0.02.

On to GGLRGRPPASHR, for which the protein stability index stood at 0.727 ± 0.074.

GGLSGRFRSPSL: the protein stability index worked out at 0.754 ± 0.081.

The sequence GGLWGSGGASGG displayed a protein stability index of 0.742 ± 0.073.

Take GGMDEVFRAHGP: the protein stability index stood at 0.712 ± 0.018.

GGMRGGYRGRCV: the protein stability index was found to be 0.679 ± 0.039.

In turn, GGPHYVYPFCSF showed a protein stability index of 0.699 ± 0.019.

On to GGPPFAPPPPPH, for which the protein stability index stood at 0.71 ± 0.026.

In turn, GGPVEQVYSKGR gave a protein stability index of 0.721 ± 0.042.

Regarding GGQEEWFGGAWL, the protein stability index was found to be 0.727 ± 0.036.

As to GGRARRGLGGPG, the protein stability index worked out at 0.6758 ± 0.0034.

For the sequence GGRDVGEMVDLQ, the protein stability index was 0.758 ± 0.14.

For the sequence GGRGGCGCGWVV, the protein stability index amounted to 0.682 ± 0.11.

GGRGGRGQGWYR returned a protein stability index of 0.661 ± 0.007.

Turning to GGRGGVWWVGRV, the protein stability index is 0.675 ± 0.037.

Sequence GGRGLGVVGEVL yielded a protein stability index of 0.72 ± 0.046.

Regarding GGRGVGVVLGVC, the protein stability index is 0.5219 ± 0.00031.

On to GGRGWEGRGGSG, for which the protein stability index is 0.684 ± 0.022.

GGRLGRGAKGRV gave a protein stability index of 0.669 ± 0.082.

GGRPVTGIAGML: the protein stability index was determined as 0.666 ± 0.025.

GGRTFHPLWGTT registered a protein stability index of 0.735 ± 0.029.

GGRWNRNSGRGG showed a protein stability index of 0.693 ± 0.021.

As for GGSARSIPVHVV, the protein stability index is 0.584 ± 0.025.

Sequence GGSDQLGDSVAG returned a protein stability index of 0.647 ± 0.057.

Turning to GGSETHLTVTIY, the protein stability index came to 0.636 ± 0.0077.

With GGSGAVRSVGEW, the protein stability index was found to be 0.668 ± 0.036.

Sequence GGSSVGALGCLC registered a protein stability index of 0.687 ± 0.0084.

In turn, GGTPGSYDIIGV came in with a protein stability index of 0.728 ± 0.016.

For GGVGGPVLGAGG, the protein stability index worked out at 0.638 ± 0.051.

As for GGVGRAALRWYG, the protein stability index stood at 0.68 ± 0.03.

GGVGRRVRLGAE had a protein stability index of 0.625 ± 0.037.

GGVGSCLVLSAR came in with a protein stability index of 0.668 ± 0.036.

As to GGVLGRRLLGGR, the protein stability index came to 0.64 ± 0.051.

Sequence GGVPRNRAQIGV yielded a protein stability index of 0.758 ± 0.082.

Turning to GGVRGWAAFSAE, the protein stability index amounted to 0.682 ± 0.028.

Sequence GGVRRRSAVGVR showed a protein stability index of 0.65129 ± 0.00017.

For the sequence GGVSKGLGARGR, the protein stability index worked out at 0.601 ± 0.042.

Turning to GGVTEGPGWCVR, the protein stability index was 0.735 ± 0.017.

With GGVVEGVSLAQC, the protein stability index came to 0.727 ± 0.049.

With GGVVGASMSGTP, the protein stability index is 0.683 ± 0.023.

GGVVLTWLGENC registered a protein stability index of 0.717 ± 0.025.

Turning to GGVWAGEATGVQ, the protein stability index amounted to 0.666 ± 0.052.

The sequence GGVWWLGVVGGV had a protein stability index of 0.657 ± 0.081.

In turn, GGWCGSGGVVRG displayed a protein stability index of 0.675 ± 0.12.

GGWGRGERRSRE: the protein stability index was determined as 0.652 ± 0.045.

The sequence GGWLGGLGCFMV returned a protein stability index of 0.708 ± 0.046.

In turn, GHGEGPGRDLGG displayed a protein stability index of 0.648 ± 0.055.

GHIQDSLSPDPH had a protein stability index of 0.613 ± 0.013.

Sequence GHSLDPSVVSPD displayed a protein stability index of 0.674 ± 0.068.

GHVLVRHNVLAV had a protein stability index of 0.58 ± 0.026.

As for GHYPCLPFLFPL, the protein stability index was found to be 0.707 ± 0.087.

In turn, GIDVGCEWYQGG showed a protein stability index of 0.698 ± 0.037.

With GIEKEADRVRKN, the protein stability index was determined as 0.659 ± 0.07.

Turning to GIGGYACHFYVW, the protein stability index was found to be 0.673 ± 0.012.

In the case of GIGSSKESGGLW, the protein stability index is 0.737 ± 0.05.

With GIGVGGIHGGIL, the protein stability index stood at 0.7547 ± 0.0044.

Take GIRAVRYFNSCC: the protein stability index was 0.598 ± 0.011.

GIRFGLVCYPNF had a protein stability index of 0.6537 ± 0.0025.

Turning to GIRVEWVGRNRC, the protein stability index worked out at 0.676 ± 0.023.

Consider GISFFPVGGPLI, for which the protein stability index is 0.735 ± 0.062.

Turning to GISPDGSSIMAA, the protein stability index is 0.689 ± 0.02.

On to GITCAEGAAMKR, for which the protein stability index was found to be 0.676 ± 0.022.

For the sequence GIVGFSHGIISL, the protein stability index came out at 0.703 ± 0.032.

The sequence GIYARPRPTQCP gave a protein stability index of 0.6718 ± 0.0037.

Take GIYLEESPMRKF: the protein stability index is 0.708 ± 0.014.

GKERIYVYGWSK returned a protein stability index of 0.686 ± 0.016.

GKEWRGSGGMRR had a protein stability index of 0.646 ± 0.014.

In the case of GKGKETKELIGK, the protein stability index worked out at 0.711 ± 0.023.

The sequence GKLGSSPQLRYY showed a protein stability index of 0.704 ± 0.046.

Consider GKLRTVVCMCYI, for which the protein stability index came to 0.643 ± 0.1.

In turn, GKNKRERNRSSG returned a protein stability index of 0.771 ± 0.14.

Sequence GKRGGTGAGEKR came in with a protein stability index of 0.66 ± 0.071.

Sequence GKRVNLNITSHS registered a protein stability index of 0.683 ± 0.024.

Take GKSHLGGSLTVL: the protein stability index was 0.671 ± 0.034.

In turn, GKSVVAHGLLGG showed a protein stability index of 0.6702 ± 0.0018.

Consider GKSYWYDSGNMM, for which the protein stability index stood at 0.752 ± 0.078.

In turn, GLACSRYVLFWK registered a protein stability index of 0.562 ± 0.023.

GLAYGICYRVVL had a protein stability index of 0.637 ± 0.011.

GLCTSIFSVVFF returned a protein stability index of 0.679 ± 0.092.

Turning to GLCVTEFCGFFL, the protein stability index came to 0.705 ± 0.019.

In turn, GLDVFFPMDRQA showed a protein stability index of 0.764 ± 0.08.

Take GLGALPVRVWEG: the protein stability index was determined as 0.731 ± 0.034.

As for GLGGPYNSHMFT, the protein stability index was found to be 0.991 ± 0.013.
